Results published in publication PMC10350107, “Mechanism of DNA unwinding by hexameric MCM8–9 in complex with HROB” (Research Square, 2023).

B1: human MCM8–9 complex, wild type (FLAG-MCM8 with MBP-MCM9, co-expressed) (complex)
chain 1: MNGEYRGRGFGRGRFQSWKRGRGGGNFSGKWREREHRPDLSKTTGKRTSEQTPQFLLSTKTPQSMQSTLDRFIPYKGWKLYFSEVYSDSSPLIEKIQAFEKFFTRHIDLYDKDEIERKGSILVDFKELTEGGEVTNLIPDIATELRDAPEKTLACMGLAIHQVLTKDLERHAAELQAQEGLSNDGETMVNVPHIHARVYNYEPLTQLKNVRANYYGKYIALRGTVVRVSNIKPLCTKMAFLCAACGEIQSFPLPDGKYSLPTKCPVPVCRGRSFTALRSSPLTVTMDWQSIKIQELMSDDQREAGRIPRTIECELVHDLVDSCVPGDTVTITGIVKVSNAEEGSRNKNDKCMFLLYIEANSISNSKGQKTKSSEDGCKHGMLMEFSLKDLYAIQEIQAEENLFKLIVNSLCPVIFGHELVKAGLALALFGGSQKYADDKNRIPIRGDPHILVVGDPGLGKSQMLQAACNVAPRGVYVCGNTTTTSGLTVTLSKDSSSGDFALEAGALVLGDQGICGIDEFDKMGNQHQALLEAMEQQSISLAKAGVVCSLPARTSIIAAANPVGGHYNKAKTVSENLKMGSALLSRFDLVFILLDTPNEHHDHLLSEHVIAIRAGKQRTISSATVARMNSQDSNTSVLEVVSEKPLSERLKVVPGETIDPIPHQLLRKYIGYARQYVYPRLSTEAARVLQDFYLELRKQSQRLNSSPITTRQLESLIRLTEARARLELREEATKEDAEDIVEIMKYSMLGTYSDEFGNLDFERSQHGSGMSNRSTAKRFISALNNVAERTYNNIFQFHQLRQIAKELNIQVADFENFIGSLNDQGYLLKKGPKVYQLQTM
chain 2: not shown
notes: human MCM8; human MCM9; Written as the heterodimer (theoretical 266 kDa with tags; hexamer 798 kDa); in solution a mix of dimers, tetramers and hexamers; also called MCM8-MCM9; FLAG-MCM8-MBP-MCM9 heterodimer complex; source: Sf9 insect cells, co-expressed; hexamer-rich pool with a Superose 6 step) or captured from lysate on amylose resin and washed; not shown: FLAG, N-terminal, kept; MBP, …
B2: HROB-L405D (natural protein, human, UniProt Q8N3J3-4 1-646, looked up)
chain: MACSLQKLFAVEEEFEDEDFLSAVEDAENRFTGSLPVNAGRLRPVSSRPQETVQAQSSRLLLLHPTAPSEALGLPDLDLCLPASSTPSADSRPSCIGAAPLRPVSTSSSWIGNQRRVTVTEVLREPARPQSSALHPLLTFESQQQQVGGFEGPEQDEFDKVLASMELEEPGMELECGVSSEAIPILPAQQREGSVLAKKARVVDLSGSCQKGPVPAIHKAGIMSAQDESLDPVIQCRTPRPPLRPGAVGHLPVPTALTVPTQQLHWEVCPQRSPVQALQPLQAARGTIQSSPQNRFPCQPFQSPSSWLSGKAHLPRPRTPNSSCSTPSRTSSGLFPRIPLQPQAPVSSIGSPVGTPKGPQGALQTPIVTNHLVQLVTAASRTPQQPTHPSTRAKTRRFPGPAGIDPHQQSGRSLEDIMVSAPQTPTHGALAKFQTEIVASSQASVEEDFGRGPWLTMKSTLGLDERDPSCFLCTYSIVMVLRKAALKQLPRNKVPNMAVMIKSLTRSTMDASVVFKDPTGEMQGTVHRLLLETCQNELKPGSVLLLKQIGVFSPSLRNHYLNVTPNNLVHIYSPDSGDGSFLKPSQPFPKDSGSFQHDVAAKPEEGFRTAQNLEAEASPEEELPEADDLDGLLSELPEDFFCGTSS
notes: human HROB as in m1 (closest to isoform 4, lacks Q-484, T126P) with L405D in the disordered region that contacts MCM8

Columns and labels:
[1] = target: the molecule itself; experiment: negative staining transmission electron microscopy; human MCM8–9 at 220 nM; ring-like particles, heterodimers to hexameric rings
[2] = target: B1; experiment: pull-down; MBP-MCM9/FLAG-MCM8 from Sf9 lysate immobilised on amylose resin and washed (300 mM NaCl, 0.1% NP40); incubated with 1 μg purified HROB wild type or mutant in 50 mM Tris-HCl pH 7.5, 100 mM NaCl, 3 mM EDTA, BSA, 1 h at 4 °C; maltose elution, western blot; details: both partners purified

Binder	binding result [1]	binding result [2]
B1	binds	–
B2	–	binds
